According to a protein production outcome set (Wang et al. 2014):

Experiment: label from the status in PepcDB records

| Sequence | protein production |
| --- | --- |
| SNAMNVPFWTEEHVRATLPERDAESHKGTYGTALLLAGSDDMPGAALLAGLGAMRSGLGKLVIGTSENVIPLIVPVLPEATYWRDGWKKAADAQLEETYRAIAIGPGLPQTESVQQAVDHVLTADCPVILDAGALAKRTYPKREGPVILTPHPGEFFRMTGVPVNELQKKRAEYAKEWAAQLQTVIVLKGNQTVIAFPDGDCWLNPTGNGALAKGGTGDTLTGMILGMLCCHEDPKHAVLNAVYLHGACAELWTDEHSAHTLLAHELSDILPRVWKRFE | not failed |
| MGHVLIEMMGIKKGDFVLDVGCGTGRQALNVAGIIGPAGKLTGIDPSSYRIELARKKFEGDSSGNVRFLVRQAENLQDIPDNSINHAYFCSSFHWVDDKKTALNEIFRVLRPGGKVGMTTLDRNSPNTMKALIDPILAKFGIERRHEWHRGMKKVTAPELHDLLSGAGFTSISIEPRAVPRKYNSPEEFLQHPEEKDSSRGILRDISNETLEKLRQEITEEFRKAQTPEDIGFGNITLFAIATKAQEGLEHHHHHH | not failed |
| REMGCAVTVADSNSAQLDKLAQQTGCQTISPADVVSDGFQDYTVVVTSPGWRPDSPLLVAAQSAGLEVIGDVELVYRLDRAEVFGPKRTWMVVTGTNGKTTTTAMLAEIMQHSGARAAAVGNIGVSVADAVRTQPRIDVLVAELSSFQL | failed |
| MIISELVHNNLRGGNKTHNLELKLPVKPVIGGSSSEDDAIVADASSLMHGDNPGLEFRHKELEAPLIPQRTHSLLYQPQKKVKPEATDSYVSQLTAEADDHLQSPNRDSLYTSMPNLRDSPYPESSPDMAEDLSPSRRSENEDIYYKSMPNLGAGRHLHMCYQISRGNSDGYIIPINKEGCIPEGDVREGQMQLVTSL | failed |
| MAMLQTNLGFITSPTFLCPKLKVKLNSYLWFSYRSQGNFSYSLYTFKPMNLWFVQKLDFSKRVNRSYKRDALLLSIKCSSSTGFDNSNAVNSNVVVKEKSVSVILLAGGQGKRMKLCFWLRDVPKISLSLFLFCGVLEYEESIDVDLRFAIPGKERQDSVYSGLQEIDVNSELVCIHDSARPLVNTEDVEKVLKDGSAVGAAVLGVPAKATIKEVIKPELLKKGFELVKSEGLEVTDDVSIVEYLKHPVYVSQGSYTNIKVTTPDDLLLAERILSEDS | failed |
| MLRLSAPGQLDDDLCLLGDVQVPVFLLRLGEASWALVEGGISRDAELVWADLCRWVADPSQVHYWLITHKHYDHCGLLPYLCPRLPNVQVLASERTCQAWKSESAVRVVERLNRQLLRAEQRLPEACAWDALPVRAVADGEWLELGPRHRLQVIEAHGHSDDHVVFYDVRRRRLFCGDALGEFDEAEGVWRPLVFDDMEAYLESLERLQRLPTLLQLIPGHGGLLRGRLAADGAESAYTECLRLCRRLLWRQSMGESLDELSEELHRAWGGQSVDFLPGELHLGSMRRMLEILSRQALPLD | failed |
| MNNLSWSDIKRSTFNAIKKGDLKLLANMIDKYPKVIDAYNSSGYSLLHVAAEQDNVEVLEYLYNNKIDVNITRKNDDGCVTPIHGAVDKNLIGNVEWLIAHGAKIDTGNGIHATPLIGAAFNGNLEMVKLLLKNGADINAFYDIGEGINKTRITPLIAAEMEGHTETCEYLCKNGARKLDAKKYELTQIKNQHDEILQYLQRYFGNVNKTLSEVIPASNVSVNLNIMRNTENDKFITIVTTGMSDCPMDDSDEAFEERFAELIIKLPKDWLIDKNNIKDVNNYWPLGWIRRIAHIPHLYDGWIGKDIIIPNGEPPQPFAPNTKLSCIMICQPDEKELHRFTTSKGNIINLYTLIPIYKEERNMALIKGCKYLRKRMEDRGIDEILNITRENVGLSADEQ | failed |
| MGHHHHHHSHDDLEVGSIYRGKITRVEKYGVFVSLNSHVWGLMRGLFPDYKVGDELFVRVSQVKPYKGEVDMIPASIKGP | not failed |
| MHPDTTLILIAAASIVLLVLLVTRLKLHPFLALMVAAAFLGLASGLAPTDAVKTFQKGFGNILGSVGLVVGLGSMLGGLLLNTGGADRIANAFVGRGSTVWLPTSICAAALLIGMPHLFDVSFVMLVPLVFAIAKRTGSHLMRVGLPMAAGLYVSHGFLLPHPSPTLALAIYHGDAGRAILFGFLLAIPTAILSGPLLTSFAMRWFKDPIDITHSPIMTAAGRSDVTTLDNAPRLPVVLLTVLLPPGLMLLRTLLADHVPEGAARAFLDGIGNPIVSLAIAVLFAIWALGVRSGRSLGEIQKLLGKSLAPAAGVILIVGAGGGLKEMLLGTHIGDMIASGAAQWAISPLVLAWVIAALMRIAVGSATVATVTAAGLMAPVQALHPEISPELMTISVATGGLMLSHLNDSGFWLFKEYFQLTVAQTLKSWTLMVSVQSALGLAGVLLIDAVIR | failed |
| MTIKTLQYDDFMLYRERIRDLLVQIYDINFDVSHDYSINESNKKINLLDEYIKTNQAVLIGAVDGEKLVGFIWIYKHEYFGETRMHINQIIVDKEYKRKGIGKRLLEEAEKKAKELGIKVIDLFVSEKNAEAVNFYEKTGFVTERRYLKKILLEHHHHHH | not failed |
| MTAVSSPACAIAGKPPMLSMRDIWLRLHRWLALCLGLFLALLGLSGSLLELKGPILRWEVGAQMLQLAPGEHGTLLQQDAWIRAASDAYPQLHKVFGAAPPRQGFLESDNVIVFGALKERPGTGIAMIDPYSGEPRGFFVFEDLWLAKLVALHRSLLLPPAWGSNLVLLYGLALLGSLGSGLYLWWPGRRSWWKAASLRPGSRGNRRLREWHNVAAAWLCLPLLLIAGSGAWLARPDLFTWPGAQPMAIKPLFSAAHGHLLLGTPGAWLAFLCGISLPLLYLTGLLLWWRKRAARRAVQSFKETSHDTP | failed |
| MIRVLFFIRMTMSRTIQRICLFLFCLPVFGSCMKWDYGEMEDFSVSASGLFITNEGNFQYSNATLSYYDPATCEVENEVFYRANGFKLGDVAQSMVIRDGIGWIVVNNSHVIFAIDINTFKEVGRITGFTSPRYIHFLSDEKAYVTQIWDYRIFIINPKTYEITGYIECPDMDMESGSTEQMVQYGKYVYVNCWSYQNRILKIDTETDKVVDELTIGIQPTSLVMDKYNKMWTITDGGYEGSPYGYEAPSLYRIDAETFTVEKQFKFKLGDWPSEVQLNGTRDTLYWINNDIWRMPVEADRVPVRPFLEFRDTKYYGLTVNPNNGEVYVADAIDYQQQGIVYRYSPQGKLIDEFYVGIIPGAFCWK | failed |
| MSVETAQRSEVGVAMARSWLLVPAVGSEVLAAAAASGADSLVIDLEDGLPFAAKDEGRARTAEWLARNAGWVRINDATTPHWQRDLDAIRGLPGVRGLMLSKTESPEQVRDTAEGIPGIPVVALVESAAAIVAADDIARTAPVSRLAFGIGDYCRDTGAGRTPMALAYARSRLVNASRAARIGAPIDGPTLSLDAEAVRDDTRLAREMGMTGKLTLATEQVPVINTALAPDSNDISWAETTIARLGADGSRVTHGGHPPQLARAHDILRRAAHFASRT | failed |
| MRRLQREIRTYDEEQLKQVREELTTYDLMTRNALLQTAHDLRAKVEQEAVPEGEQATTYLKAVVDDRRHELSVFLPATQASAALENVRRHLVNQILSIGGKAKKLETERCAAERHLKRPTVEVVQREHDAHLRRLRQWQEVQSRFQTWHTYEQAYARWPDLAAAFDSGPTEAATRVATELHKRTLATMQEQDRWREFLRQATEQEHQRQLTPPEDDLPEDDLEEDTWAAAESSEPSGSLFSRLGHTLSRLMAPPGPDEVPSAATAPRETDGWDDVQPQIAPDPRSTVPGLWDDADDLTPVSPVAPARPAPSPPVYDAAAVPALDIDFSAAPRRSRTPAEQMPDPFARAARVRSARRTTTPLVPVPQQLDAAEMPAPRPARTPPGRPATAGNVAPPSAPRTARPPSPTLADFDLWDDEEDMPFGPPATPAPAAASVPQMVPTPRAAARPTPRPVSSPGPSPVPVSPASASVSHAAPWEEPAAGRPAPAPSGVSRRGATRLALPSEQLLDPLPNGARNTVQMDLDAERRGDMINETLRQFGLQAKVVDLARGPTVTRYEIEPAPGEKISRIASLSNDLARALAVGGVRVEAPVPGKSVIGLEVPNAEREPVTFHQATANPAFKNTRAKLPIILGKSIDGSMMVGDLAKMPHLLVAGSTGSGKSVCVNTLITSLLYRYLPTELRFVMIDPKMVELTPYDGIPHLVRPVVTNPADAAGVLLGAVAHMERRYKMMSQVGAKNLEQFNAKMRAVGEVELPHLVIIIDELADLMITSPKEVESAIMRLAQMARATGMHLILATQRPSVDILTSLIKVNIPARIAFAVSSSHDSRTILDTTGAERLTGMGDMLFYQPGLVKPLRLQGPYISEAESARITDELRRMMFDDDFIEAYGADFEGMISSSGPGGDRSQLDFSDPLLRQAALVCIEEGQGSVSRLQRRLSVGHARAGKLMDLLEAMNIVGPHQGSKPREVLIHEADLPEYFGK | failed |
| MLLKSIIPCMVKAFKFRLYPTTAQAVQLNQHIGSCRFVYNWALDQKIKTYEQTGKSISRFDLNKLIPTLKASNEWLGEVNSQSLQGMTKQVESAFTRFFRGKTGFPKFKSKKNPIQSFPVPQHYSVDFEKNTIKLPKIEPIKAVFHRKFEGELKTATVSRTCKGHYYISILVEDGKELPVKEAFAESTTIGIDVGIKDFAVLSNGEKIENPKYLKNSLKRLKVLQKRVSKKQKGSKNRAKAKQRLAVLHDKITNQRNDFQNKLSFKLISENQAVALETLNVKGMVKNHHLAQSISDSAWSSFVTKLEYKAEWFGKTILRIGQFEPSSKLCSVCGYHNKELQLKDREWTCPDCKTKHDRDINAAINIKKFALVDQNLIGLLEHHHHHH | not failed |
| MTFTDALGQAHAPVDTTPRIASLVPSITDLLFSLDLGGQLVARTGFCIHPREAVRAIPKVGGTKTVKLDRLRELAPTHVIVNIDENTRETADKLREFVPHVIVTHPCAPEDNLTLYGLLGGIFRREAQAQRLSEALARELAALRGQVFPLRRVLYAIWQDPWMTVARDTYISRMLALIGCQTWPEDPAPVQCGTGRHGDCARPNRPDTRYPTFRWSDEVVRNIDCVLLSTEPYSFTEAHADALEKQIGKPVYLVDGEMVSWYGSRAIEGVRYLGRLAQALT | failed |
| MQPETSAQYQHRFSQAIRGGEAADGLPQDRLNVYIRLIRNNIHSFIDRCYTETRQYFDSKEWSRLKEGFVRDARAQTPYFQEIPGEFLQYCQSLPLSDGILALMDFEYTQLLAEVAQIPDIPDIHYSNDSKYTPSPAAFIRQYRYDVTHDLQEAETALLIWRNAEDDVMYQTLDGFDMMLLEIMGSSALSFDTLAQTLVEFMPKADNWKNILLGKWSGWIEQRIIIPSLSAISENMEGNSPSQNHLSA | not failed |
| MWLLCDCLLCFPLSPEEFLTEILDLLELVFVILVVCEWKPKRFAGEFRLLMEQRVQLRVGTMETISNEGDVDREQVLETFGIENETGKETNGSRSFDVGYSSGDTLETLPKASKVDISPADVLKTLFFILVWYTFSTFLTLYNKTLLGDDLGKFPAPLLMNTIHFSIQAVLSKMITWYWSGRFQPDVTISWRDYFVRVVPTALGTAMDINLSNESLVFISVTFATMVSYFIYYVQICSPNISSSVCFCLQSPSLKLFGIISVISAGVLLTVAKETEFEFWGFVFVMLAAVMSGLKNPFIFMSCVAPVMAIATGLLSLLLDPWSEFRDNKYFDSGAHFARTCFLMLFGGALAFCMVLTEYVLVSVTSAVTVTIAGVVKEAVTIVVAVFYFHDEFTWLKGVGLMIIMVGVSLFNWYKYDKLQKGHKTEEEKQLQAPSQTGKYVILDEMDDQENSP | failed |
| MQVQELVGIVPWNFIATICNLFIQVYLIKRFLFKPVNEMLEKRRAKADAEIQDAVKAKEEAEVMKAEYEKNMQEAKEKANDIVLTAQKTAAVQSEEMLKEASSQVTAMKEKAEKDIAQERRKAVNEIKGEIGGMAVEIAGKVIEREINEEDHTKLINDFIENVGEAS | not failed |
| MTRHNEIIKCAEKYQLHIQPQTISLNESGLDFQVAFGKDKHGVEWVLRLPRRPDVYKRTKPEKQTVDFLQKNVSFEIPKWKVHAKDLIAYPKLTGKPAATIDPEIQNYVWEIEHKPLPENFINTLAETLVDLHNIPEENINVQHINIKTIQEIKNDFQRRMNKVKETYGVSDELWNRWKQWLENDELWPRHATMIHGDLHPGHIMVDNQANVTGLIDWTEATHSDPSMDFIGHHRVFDDEGLEQLITAYGKAGGEIWPRMKEHIIELNAVFPMFIAEFAMESGESAYETMALKELGMKE | failed |
